Reference: patent publication US20260125454A1 (SHANGHAI JUNSHI BIOSCIENCES, published 2026)
Substitutions are numbered along the chain they refer to. “And” between values parts separate entries of the source, which are not always exact repeats. Identical values can stand only once. Bridges are numbered along the chain shown (N, C = ends). Where no end group is shown, it is not given here.

T1: Biotin-1-19 polypeptide (human, disulfide 2-7; not fully specified (N-terminus); printed as Biotin-Linker(G5)-ACDTATCVTHRLAGLLSRS; ends not checked; also: biotin, position not given here)
T1 construct: also called fragment CGRP (1-19); truncated (1-19) CGRP
T1 peptide: ACDTATCVTHRLAGLLSRS

T2: Biotin-huCGRPaSA (human, not fully specified; biotin (position not given))
T2 construct: exact construct ('aSA') not explained; also called Biotin CGRPaSA; full-length (1-37) CGRP
T2 peptide: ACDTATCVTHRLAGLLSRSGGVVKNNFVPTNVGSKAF

T3: human β-CGRP (human, UniProt P10092 82-118, not fully specified)
T3 construct: mature; also called human full-length (1-37) β-CGRP polypeptide (Anaspec)
T3 peptide (looked up): T2 peptide with D3N, V22M, N25S

B1: C245 (antibody, V domains shown)
VH: EVQLQQSGPELVKPGASMKISCKASGYSFTGYTMNWVKQSHGNNLEWIGLINPYIGNTHYNQKFKDKATFTVDRSSSTAYMALLSLTSEDSAVYYCARELDSGFDYWGQGTTLTVSS
VL: DVLMTQTPLSLPVSLGDQASLSCRSSQNIVHSNGDTYLEWYLQKPGQSPKLLIYKVSNRFSGVPDRFSGSGSGTDFTLKISRVEAEDLGVYYCYQGSHVPWTFGGGTKLEIK
notes: 3C1-HC + 3C1-LC; chimeric, human constant regions; also called chimeric antibody C245
B2: C232 (antibody, V domains shown)
VH: B1 VH
VL: DIVLTQSPASLAVSLGQRATISCKASQNIDYDGYAYLNWYQQKPGQPPKVLIYSVFNLESGIPARFSGSGSGTDFTLNIHPVEEEDAATYYCQQSNEFPYTFGGGTKLEVK
notes: 3C1-HC + 1A2-LC2; chimeric, human constant regions
B3: C246 (antibody, V domains shown)
VH: B1 VH
VL: B2 VL with A35T, V55I, F98V, V110I
notes: 3C1-HC + 3E5-LC; chimeric, human constant regions
B4: C253 (antibody, V domains shown)
VH: B1 VH
VL: B2 VL with A9D, D32G, A35S, L37M, N78T, F98A, V110I, K111R
notes: 3C1-HC + 3H10-LC2; chimeric, human constant regions
B5: C117 (antibody, V domains shown)
VH: EVQLQQSGPELVKPGASVKISCKASGYTFTDYNMHWVKQSHGKSLEWIGNIYPYNGGTVYNQKFNNKATLTVHTSSSTAYMDLRSLTSDDSAVYYCAREGLGGYWGQGTTLTVSS
VL: B2 VL
notes: 2B8-HC1 + 1A2-LC2; chimeric, human constant regions
B6: C79 (antibody, V domains shown)
VH: EVQLQQSGPELVKPGASVKISCKTSGYTFIDFNMHWVKQSHGKSLEWIGYIYPYNGDVVYNQNFTNKATLTVDSSSSTAYMELRRVTSEDSAIYYCAREGLGGYWGQGTTLTVSS
VL: DVVLTQSPTSLAVSLGQRATISCQASQNIDGNTYMNWYQQKPGQPPKVLIYSIFNLESGIPARFSGSGSGTHFTLTIHPVEEEDAATYYCQQSNDYPYTFGGGTKLEIK
notes: 1F5-HC + 2B8-LC2; chimeric, human constant regions
B7: C71 (antibody, V domains shown)
VH: B6 VH
VL: B2 VL
notes: 1F5-HC + 1A2-LC2; chimeric, human constant regions
B8: C74 (antibody, V domains shown)
VH: B6 VH
VL: B2 VL with Y31F, L37M, Q42H, K49R, N96H, F98V, K107N, V110I
notes: 1F5-HC + 1F5-LC1; chimeric, human constant regions
B9: C269 (antibody, V domains shown)
VH: B5 VH with A24T, N50Y, Y52S, V59A, N65K, N66F, A68S, H73D, D82E, D89E
VL: B2 VL with A35T, V55I, F98V, V110I
notes: 3E5-HC + 3E5-LC; chimeric, human constant regions
B10: 3C1 (antibody, V domains shown)
VH: B1 VH
VL: B1 VL
notes: murine hybridoma supernatant; also called hybridoma antibody 3C1
B11: 3E5 (antibody, V domains shown)
VH: B5 VH with A24T, N50Y, Y52S, V59A, N65K, N66F, A68S, H73D, D82E, D89E
VL: B2 VL with A35T, V55I, F98V, V110I
notes: murine hybridoma supernatant; also called hybridoma antibody 3E5

Target: T1, Biotin-1-19 polypeptide
Assay: ELISA, transfection supernatant, biotin-CGRP(1-19) on streptavidin
Experimental: Streptavidin was diluted to 0.5 μg/mL by using PBS (Hyclone) and added into a plate at 100 μL/well. The plate was incubated in a thermostat incubator at 37° C. for 90 min and then washed. 2% BSA was added to the plate at 200 μL/well, and the plate was incubated in the thermostat incubator at 37° C. for 90 min and washed. Biotin-1-19 polypeptide was diluted to 2.0 μg/mL with 2% BSA and added into the plate at 100 μL/well, and the plate was incubated in the thermostat incubator at 37° C. for 60 min. The reference antibody (Lily) was diluted to 2500 ng/ml with a diluent (2% BSA) and then serially 4-fold diluted to 0.15 ng/ml. For chimeric antibodies, the stock solution was diluted. All the chimeric antibody solutions and the reference antibody solution were added into plates at 80 μL/well, and the plates were incubated in a thermostat incubator at 37° C. for 60 min and washed. An HRP-conjugated mouse anti-human antibody IgG4 (manufacturer: Southern Biotech, Cat. No. 9200-05; Fc specificity) was diluted 5000-fold with 2% BSA and added into the plates at 100 µL/well, and the plates were incubated in the thermostat incubator at 37° C. for 60 min and washed. 0.1 mg/mL chromogenic reagent TMB was carefully added at 100 μL/well to avoid bubbles, and the system was incubated at 37° C. for 10 min away from light for chromogenic reaction. Finally, a 2 M hydrochloric acid solution was added at 100 μL/well to stop the reaction while avoiding bubbles, and the plates were read on a microplate reader within 10 min (the detection wavelength was 450 nm; the reference wavelength was 620 nm).

Binder	OD value [OD]
B1	2.51
B2	3.15
B3	0.91
B4	2.94

Target: CGRP antigen
Assay: cell-based or functional assay

Binder	Relative binding activity (%) vs Ref(Teva) [%]
B5	74.1
B6	71.1
B7	106
B8	76

Target: T2, Biotin-huCGRPaSA
Assay: ELISA, purified antibody; relative to reference 47-RM-20190815
Experimental: Streptavidin was diluted to […] by using PBS (Hyclone) and added into a plate at 100 μL/well. The plate was incubated in a thermostat incubator at 37° C. for 90 min and then washed. 2% BSA was added to the plate at 200 μL/well, and the plate was incubated in the thermostat incubator at 37° C. for 90 min and washed. Biotin-huCGRPaSA was diluted to 2.0 μg/mL with 2% BSA and added into the plate at 100 μL/well, and the plate was incubated in the thermostat incubator at 37° C. for 60 min. The chimeric antibodies in Table 3 and reference antibody (47-RM-20190815) were diluted to 1000 ng/ml with a diluent (2% BSA) and serially 10-fold diluted to 1 ng/mL. All the chimeric antibody solutions and the reference antibody solution were added into plates at 100 μL/well, and the plates were incubated in a thermostat incubator at 37° C. for 60 min and washed. An HRP-conjugated mouse anti-human antibody IgG4 (manufacturer: Southern Biotech, Cat. No. 9200-05; Fc specificity) was diluted 5000-fold with 2% BSA and added into the plates at 100 μL/well, and the plates were incubated in the thermostat incubator at 37° C. for 60 min and washed. 0.1 mg/mL chromogenic reagent TMB was carefully added at 100 μL/well to avoid bubbles, and the system was incubated at 37° C. for 5 min away from light for chromogenic reaction. Finally, a 2 M hydrochloric acid solution was added at 100 μL/well to stop the reaction while avoiding bubbles, and the plates were read on a microplate reader within 10 min (the detection wavelength was 450 nm; the reference wavelength was 620 nm). EC₅₀ was fit by using a four-parameter logistic regression (4PL) model.

Binder	Relative activity (%)
B1	240
B5	31.7
B2	3.4
B9	101
B6	59.8
B7	47.3
B8	39.5

Target: CGRP antigen
Assay: cell-based or functional assay
Remark: another data set of the same source

Binder	IC50 of reference C245
B1	0.018 µg/mL and 0.0236 µg/mL and 0.0259 µg/mL and 0.0281 µg/mL

Target: CGRP antigen
Assay: cell-based or functional assay
Remark: another data set of the same source

Binder	Relative binding activity (%) vs Ref(Teva) [%]
B1	116
B6	71.1

Target: T3, human β-CGRP
Assay: ELISA, hybridoma supernatant

Binder	binding result
B10	binds
B11	binds

Target: T2, Biotin-huCGRPaSA
Assay: ELISA, transfection supernatant, biotin-CGRP on streptavidin
Experimental: Streptavidin was diluted to 0.5 μg/mL by using PBS (Hyclone) and added into a plate at 100 μL/well. The plate was incubated in a thermostat incubator at 37° C. for 90 min and then washed. 2% BSA was added to the plate at 200 μL/well, and the plate was incubated in the thermostat incubator at 37° C. for 90 min and washed. Biotin-huCGRPaSA was diluted to 2.0 μg/mL with 2% BSA and added into the plate at 100 μL/well, and the plate was incubated in the thermostat incubator at 37° C. for 60 min. The reference antibody (47-RM) was diluted to 2500 ng/ml with a diluent (2% BSA) and serially 4-fold diluted to 0.15 ng/mL, and the chimeric antibodies were diluted with a cell supernatant stock solution. All the chimeric antibody solutions and the reference antibody solution were added into plates at 80 μL/well, and the plates were incubated in a thermostat incubator at 37° C. for 60 min and washed. An HRP-conjugated mouse anti-human antibody IgG4 (manufacturer: Southern Biotech, Cat. No. 9200-05; Fc specificity) was diluted 5000-fold with 2% BSA and added into the plates at 100 μL/well, and the plates were incubated in the thermostat incubator at 37° C. for 60 min and washed. 0.1 mg/mL chromogenic reagent TMB was carefully added at 100 μL/well to avoid bubbles, and the system was incubated at 37° C. for 10 min away from light for chromogenic reaction. Finally, a 2 M hydrochloric acid solution was added at 100 μL/well to stop the reaction while avoiding bubbles, and the plates were read on a microplate reader within 10 min (the detection wavelength was 450 nm; the reference wavelength was 620 nm).

Binder	OD value [OD]
B1	3.31
B5	3.06
B2	3.28
B9	2.91
B4	2.46
B6	3.03
B7	3.06
B8	3.06

Target: CGRP antigen
Assay: cell-based or functional assay
Remark: another data set of the same source

Binder	EC50 (so labelled in the table under the curves; half-maximal inhibition of the CGRP-induced luciferase signal in SK-N-MC CRE 2E9 reporter cells, CGRP antigen at 4 ng/mL) [µg/mL]
B9	0.143
